{
  "source": "patent US20070172423A1",
  "about": "“Composition and method for modulating vasculogenesis for angiogenesis” (priority 1998, published 2007)",
  "molecules": {"B1": {"name": "PDGF-CC: recombinant human PDGF-CC core domain homodimer, residues 230-345 of full-length PDGF-C (SEQ ID NO:40), produced in baculovirus infected insect cells (protein)", "chain": "GRKSRVVDLNLLTEEVRLYSCTPRNFSVSIREELKRTDTIFWPGCLLVKRCGGNCACCLHNCNECQCVPSKVTKKYHEVLQLRPKTGVRGLHKSLTDVALEHHEECDCVCRGSTGG", "modifications": "homodimer; PDGF-C core domain"}},
  "key": {"aortic rings": {"test_system": "aortic rings", "assay": "Aortic ring assay", "type": "cell-based", "description": "Cell migration assays were performed on growth arrested confluent HMVEC, BAEC or hSMC cells. Cell monolayers were wounded with a rubber policeman and washed with serum-free medium. Dishes were then incubated for 20 hours in serum-free medium containing VEGF165, PDGF-AA, (R&D Systems, Minneapolis USA) or PDGF-CC. Each assay included two dishes per condition and was repeated three times independently. Cells were photographed at 40× magnification, and migration percentage corresponding to the ratio between area of the cells and the total area of the wound (Biocom visiol@b 2000 version 4.52, San Diego). For HMVEC proliferation assay, cells were seeded in 96-well plates (5 wells per condition), and incubated with VEGF, PDGF-AA, or PDGF-CC (50 ng/ml) after serum starvation. After 7 days, viable cells were counted using the cell Titer-glo luminescent cell viability assay. For NIH-3T3 and hSMC proliferation assay, cells cultured in 96-well plates were serum-starved overnight, followed by treatment with growth factors at different concentrations. Two days later, cell numbers were counted and proliferation percentage calculated, using cells cultured in medium containing 10% serum as control. Aortic ring assay was performed as described 51. Briefly, one-millimeter long aortic rings were embedded in gels of rat tail interstitial collagen and cultured at 37° C., supplemented with different growth factors (50 ng/ml). Aortic rings were analysed at day 9 of culturing. Experiments included three explants per condition and were repeated at least twice. Aortic rings were photographed at 25× magnification.\nAlthough PDGFR-α is expressed on endothelial cells (Edelberg et al., Journal of Clinical Investigation, 1998 102:837-43; Smits et al., Growth Factors, 1989 2:1-8; Bar et al., Endocrinology, 1989 124:1841-8; Beitz et al., Proc Natl Acad Sci USA, 1991 88:2021-5; Marx et al., J Clin Invest, 1994 93:131-9; Shinbrot et al., Dev. Dyn., 1994 199:169-175), little is known about the functional consequence of PDGFR-α signaling in these cells. […] We also tested the effect of PDGF-CC on cultured aortic rings, as this assay allows assessment of the outgrowth of microvessels from an intact vessel in vitro (Blacher et al., Angiogenesis, 2001 4:133-42). Results are graphically represented as the number of microvessels and the distance over which they grew out from the aortic ring. Each experiment included three explants per condition and was repeated at least twice. At day 9 after culturing, microvessels and the distance of their outgrowth were quantified and evaluated using Student's t test. In baseline conditions, only a small number of microvessels sprouted from the aortic rings—most of them over very short distances (0.25 mm from the aortic ring)—and only a small fraction (<5%) growing out over longer distances (>0.5 mm from the aortic ring, FIG. 41a). VEGF increased not only the number of sprouting microvessels (P<0.001 at all concentrations versus control), but also the distance over which they grew out (P<0.05 at all concentrations versus control; FIG. 41b,f). At 30 ng/ml, PDGF-CC increased the number of microvessels (P<0.001 versus control, FIG. 41e,g) and increased the distance of vessel outgrowth at 5 ng/ml (P<0.01 versus control, FIG. 41g). […] A similar bell-shaped dose-response relationship has been documented for other members of the VEGF/PDGF-superfamily (Jin et al., J Mol Neurosci, 2000 14:197-203). […]"}, "infarcted heart area": {"test_system": "infarcted heart area", "assay": "Revascularization following heart infarction (LAD ligation), Examples 16-17", "type": "in vivo, mice", "description": "Chronic myocardial ischemia was replicated by ligation of the left anterior descending (LAD) coronary artery using anesthetized 10 week old normal C57B16 mice. For PDGF-C treatment mice, 10 μg of recombinant human PDGF-CC core domain protein produced in baculovirus infected insect cells were administered after heart infarction using a subcutaneous osmotic minipump for seven days (ALZET™osmotic pump, DURECT Corporation, Cupertino, Calif.). Seven days after LAD ligation, infarcted hearts were fixed and collected. The PDGF-CC core domain protein (SEQ ID NO: 40) corresponds to corresponds to residues 230-345 of full-length PDGF-C protein i.e. amino acids 230-345 of SEQ ID NO:3. The hearts were sectioned longitudinally into 6 μm sections. Hematoxylin-eosine and immunohistochemical stainings were performed using thrombomodulin as a marker for endothelial cells. Smooth muscle alpha-actin was used as a marker for vascular smooth muscle cells. Infarcted areas and vessel densities were calculated using a Quantinet Q600 image analysis system (Leica, Brussels, Belgium). Data were statistically analyzed using the Student T test.\nThe same experiment as discussed in Example 16 was repeated using 30 μg recombinant PDGF-C per mouse."}, "[1]": {"conditions": "10 μg by osmotic minipump for seven days"}, "[2]": {"conditions": "10 μg by osmotic minipump for seven days, average ±SD"}},
  "data": [
    {"molecule": "B1", "values": [
      {"measurement": "distance of vessel outgrowth", "setting": "aortic rings; 5 ng/ml, day 9, versus control", "result": "increased"},
      {"measurement": "number of microvessels", "setting": "aortic rings; 30 ng/ml, day 9, versus control", "result": "increased"},
      {"measurement": "concentration of maximal stimulation of perivascular fibroblast-like cells", "setting": "aortic rings; FIG. 41 legend", "result": "5 to 10", "unit": "ng/mL"},
      {"measurement": "concentration of maximum effect on microvessel sprouting", "setting": "aortic rings; bell-shaped dose-response, less potent at 50 ng/ml", "result": 30, "unit": "ng/mL"},
      {"measurement": "number and emigration of perivascular fibroblast-like cells", "setting": "aortic rings; day 9, versus control", "result": "significantly increased"},
      {"measurement": "large vessel (>30 μm) density relative to normal (untreated) mice", "setting": "infarcted heart area; [1]", "result": 114, "unit": "%"},
      {"measurement": "medium vessel (10-30 μm) density relative to normal (untreated) mice", "setting": "infarcted heart area; [1]", "result": 111, "unit": "%"},
      {"measurement": "small vessel (<10 μm) density relative to normal (untreated) mice", "setting": "infarcted heart area; [1]", "result": 159.4, "unit": "%"},
      {"measurement": "large vessel (>30 μm) density", "setting": "infarcted heart area; [2]", "result": "8.3±3.2", "unit": "large vessels/mm^2"},
      {"measurement": "medium vessel (10-30 μm) density", "setting": "infarcted heart area; [2]", "result": "14.5±3.7", "unit": "medium vessels/mm^2"},
      {"measurement": "small vessel (<10 μm) density", "setting": "infarcted heart area; [2]", "result": "33.2±12.5", "unit": "small vessels/mm^2"},
      {"measurement": "total vessel density", "setting": "infarcted heart area; 10 μg by osmotic minipump for seven days, average ±SD, n=6", "result": "56±16.6", "unit": "total vessels/mm^2"},
      {"measurement": "total vessel density relative to normal (untreated) mice", "setting": "infarcted heart area; 10 μg by osmotic minipump for seven days, infarcted area", "result": "about 136%"},
      {"measurement": "SMA positive large vessel density relative to normal (untreated) mice", "setting": "infarcted heart area; 30 μg per mouse over 7 days", "result": 114, "unit": "%"},
      {"measurement": "SMA positive medium vessel density relative to normal (untreated) mice", "setting": "infarcted heart area; 30 μg per mouse over 7 days", "result": 142, "unit": "%"},
      {"measurement": "SMA positive small vessel density relative to normal (untreated) mice", "setting": "infarcted heart area; 30 μg per mouse over 7 days", "result": 145, "unit": "%"},
      {"measurement": "thrombomodulin positive large vessel density relative to normal (untreated) mice", "setting": "infarcted heart area; 30 μg per mouse over 7 days", "result": 167, "unit": "%"},
      {"measurement": "thrombomodulin positive medium vessel density relative to normal (untreated) mice", "setting": "infarcted heart area; 30 μg per mouse over 7 days", "result": 153, "unit": "%"},
      {"measurement": "thrombomodulin positive small vessel density relative to normal (untreated) mice", "setting": "infarcted heart area; 30 μg per mouse over 7 days", "result": 147, "unit": "%"},
      {"measurement": "total SMA positive vessel density relative to normal (untreated) mice", "setting": "infarcted heart area; 30 μg per mouse over 7 days", "result": 141, "unit": "%"},
      {"measurement": "total thrombomodulin positive vessel density relative to normal (untreated) mice", "setting": "infarcted heart area; 30 μg per mouse over 7 days", "result": 151, "unit": "%"}
    ]}
  ]
}
